Reference: patent US20250320281A1

Columns and labels:
Assay in all cases: cell-based or functional assay
[1] = biological target: HIV-1 Env of isolate 93MW959 (subtype C) (HIV-1)
[2] = biological target: HIV-1 Env of isolate 93TH305 (HIV-1)
[3] = biological target: HIV-1 Env of isolate CMU02 (subtype AE) (HIV-1)
[4] = biological target: HIV-1 Env of isolate MG RM-D-014 (HIV-1)
[5] = biological target: HIV-1 Env of isolate MG RM-D-016 (HIV-1)
[6] = biological target: HIV-1 Env of isolate MGRM-A-005 (HIV-1)
[7] = biological target: HIV-1 Env of isolate MGRM-A-013 (subtype A) (HIV-1)
[8] = biological target: HIV-1 Env of isolate MGRM-AG-005 (subtype AG) (HIV-1)
[9] = biological target: HIV-1 Env of isolate MGRM-AG-011 (subtype AG) (HIV-1)
[10] = biological target: HIV-1 Env of isolate MGRM-Chronic-B-011 (subtype B) (HIV-1)
[11] = biological target: HIV-1 Env of isolate MGRM-Chronic-B-024 (subtype B) (HIV-1)
[12] = biological target: HIV-1 Env of isolate TRJ04551.58 (subtype B) (HIV-1)
[13] = biological target: HIV-1 envelope glycoprotein (Env) of isolate MGRM-C-009 (HIV-1)
[14] = biological target: HIV-1 envelope glycoprotein (Env) of isolate MGRM-C-026 (HIV-1)
[15] = biological target: HIV-1 94UG103 envelope glycoprotein (Env) on pseudovirus (HIV-1)
[16] = biological target: HIV-1 Env of isolate MGRM-D-005 (clade D pseudovirus) (HIV-1)
[17] = biological target: HIV-1 Env of pseudovirus MGRM-AE-001 (clade CRF01_AE) (HIV-1)
[18] = biological target: HIV-1 Env of pseudovirus MGRM-AG-005 (clade CRF_AG) (HIV-1)
[19] = biological target: HIV-1 Env of pseudovirus MGRM-Chronic-B-010 (HIV-1)
[20] = biological target: HIV-1 Env of pseudovirus MGRM-Chronic-B-012 (HIV-1)
[21] = biological target: HIV-1 Env of pseudovirus MGRM-F1-006 (HIV-1)
[22] = biological target: HIV-1 Env of pseudovirus MGRM-F1-012 (HIV-1)
[23] = biological target: HIV-1 Env of pseudovirus MGRM-F1-014 (HIV-1)
[24] = biological target: HIV-1 Env of pseudovirus MGRM-F1-018 (HIV-1)
[25] = biological target: HIV-1 Env of pseudovirus MGRM-G-011 (HIV-1, clade G isolate MGRM-G-011)
[26] = biological target: HIV-1 Env of pseudovirus MGRM-G-014 (HIV-1, clade G isolate MGRM-G-014)
[27] = biological target: HIV-1 Env of pseudovirus MGRM-G-027 (HIV-1, clade G isolate MGRM-G-027)
[28] = biological target: HIV-1 JRCSF envelope glycoprotein (Env) on pseudovirus (HIV-1) (UniProt P20871)
[29] = biological target: HIV-1 envelope glycoprotein (Env) of isolate 92RW009, clade A (HIV-1)
[30] = biological target: HIV-1 envelope glycoprotein (Env) of isolate 94KE105, listed under clade A (HIV-1)
[31] = biological target: HIV-1 envelope glycoprotein (Env) of isolate MGRM-A-009, clade A (HIV-1)
[32] = biological target: HIV-1 Env of isolate 98CN009 (pseudovirus) (HIV-1)
[33] = biological target: HIV-1 Env of isolate 98IN022 (HIV-1)
[34] = biological target: HIV-1 Env of isolate APV_6 (subtype B pseudovirus) (HIV-1)
[35] = biological target: HIV-1 Env of isolate MGRM-AE-008 (HIV-1)
[36] = biological target: HIV-1 Env of isolate MGRM-D-005 (pseudovirus) (HIV-1)
[37] = biological target: HIV-1 Env of isolate MGRM-D-011 (pseudovirus) (HIV-1)
[38] = biological target: HIV-1 Env of isolate MGRM-D-028 (pseudovirus) (HIV-1)
[39] = biological target: HIV-1 Env of isolate QH0692.42 (subtype B pseudovirus) (HIV-1)
[40] = biological target: HIV-1 Env of isolate SC422661.8 (subtype B pseudovirus) (HIV-1)

Chain of 5345_I01 (PGT-137) (antibody) (VH): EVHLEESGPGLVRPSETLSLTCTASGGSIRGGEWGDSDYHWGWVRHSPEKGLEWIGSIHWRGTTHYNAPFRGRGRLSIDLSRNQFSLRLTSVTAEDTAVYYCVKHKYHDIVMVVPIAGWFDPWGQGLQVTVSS
Chain of 5345_I01 (PGT-137) (antibody) (VL): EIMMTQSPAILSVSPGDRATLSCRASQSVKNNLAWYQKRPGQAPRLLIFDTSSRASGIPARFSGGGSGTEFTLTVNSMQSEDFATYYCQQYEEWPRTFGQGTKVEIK
Chain of 5329_C19 (PGT-136) (antibody) (VH): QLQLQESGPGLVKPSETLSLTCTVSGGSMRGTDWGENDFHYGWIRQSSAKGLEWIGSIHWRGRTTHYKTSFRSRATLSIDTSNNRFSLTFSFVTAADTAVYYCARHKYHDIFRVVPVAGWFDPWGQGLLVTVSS
Chain of 5329_C19 (PGT-136) (antibody) (VL): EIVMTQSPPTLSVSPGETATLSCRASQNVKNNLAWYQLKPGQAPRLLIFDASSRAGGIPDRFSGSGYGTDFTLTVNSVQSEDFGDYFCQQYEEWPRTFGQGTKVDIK
Chain of 4980_N08 (PGT-143) (antibody) (VH): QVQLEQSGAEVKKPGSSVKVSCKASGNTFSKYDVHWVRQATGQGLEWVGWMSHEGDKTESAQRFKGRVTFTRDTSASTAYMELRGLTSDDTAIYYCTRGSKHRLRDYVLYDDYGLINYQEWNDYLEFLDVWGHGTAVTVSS
Chain of 4980_N08 (PGT-143) (antibody) (VL): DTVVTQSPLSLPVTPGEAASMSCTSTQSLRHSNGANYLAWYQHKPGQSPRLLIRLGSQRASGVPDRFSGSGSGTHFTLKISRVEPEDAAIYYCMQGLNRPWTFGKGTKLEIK
Chain of 4995_E20 (PGT-142) (antibody) (VH): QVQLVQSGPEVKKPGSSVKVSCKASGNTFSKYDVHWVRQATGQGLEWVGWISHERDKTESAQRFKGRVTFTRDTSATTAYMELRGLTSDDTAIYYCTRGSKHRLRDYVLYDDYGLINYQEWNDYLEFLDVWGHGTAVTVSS
Chain of 4995_E20 (PGT-142) (antibody) (VL): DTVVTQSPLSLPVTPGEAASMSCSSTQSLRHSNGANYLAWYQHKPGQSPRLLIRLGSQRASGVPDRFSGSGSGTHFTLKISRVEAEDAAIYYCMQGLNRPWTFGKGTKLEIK
Chain of 4970_K22 (PGT-144) (antibody) (VH): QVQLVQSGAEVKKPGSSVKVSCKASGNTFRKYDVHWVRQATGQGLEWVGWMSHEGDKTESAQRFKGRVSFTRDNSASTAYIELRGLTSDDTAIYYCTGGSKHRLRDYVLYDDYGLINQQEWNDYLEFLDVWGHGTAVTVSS
Chain of 4970_K22 (PGT-144) (antibody) (VL): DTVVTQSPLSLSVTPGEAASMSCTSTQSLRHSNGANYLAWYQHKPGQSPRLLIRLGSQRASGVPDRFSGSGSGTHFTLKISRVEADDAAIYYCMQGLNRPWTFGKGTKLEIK
Chain of 4993_K13 (PGT-141) (antibody) (VH): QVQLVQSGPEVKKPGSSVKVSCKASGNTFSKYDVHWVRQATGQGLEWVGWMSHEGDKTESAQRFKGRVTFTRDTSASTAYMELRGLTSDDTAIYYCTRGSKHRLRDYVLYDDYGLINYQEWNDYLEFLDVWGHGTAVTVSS

Row | Substance | IC50 neutralization [1] [mg/L] | neutralization IC50 [2] [mg/L] | IC50 (µg/mL), pseudovirus neutralization [3] [µg/mL] | IC50 (µg/mL), pseudovirus neutralization [4] [µg/mL] | IC50 (µg/mL), pseudovirus neutralization [5] [µg/mL] | IC50 [6] [mg/L] | IC50 (µg/mL), pseudovirus neutralization [7] [µg/mL] | IC50 (µg/mL), pseudovirus neutralization [8] [µg/mL] | IC50 (µg/mL), pseudovirus neutralization [9] [µg/mL] | IC50 neutralization [10] [mg/L] | IC50 neutralization [11] [mg/L] | IC50 neutralization [12] [mg/L] | IC50 (µg/mL), pseudovirus neutralization [13] [µg/mL] | IC50 (µg/mL), pseudovirus neutralization [14] [µg/mL] | also measured
1 | 5345_I01 (PGT-137) (antibody) | > 50 | > 50 | > 50 | > 50 | > 50 | > 50 | 49.2 | > 50 | > 50 | > 50 | > 50 | > 50 | > 50 | 0.011 | 
2 | 5147_N06 (PGT-130) (antibody) | 8.55 | 0.021 | > 50 | 0.061 | > 50 | > 50 | > 50 | 0.54 | > 50 | 0.153 | 5.78 | 0.023 | > 50 | 0.036 | 
3 | 1496_C09 (PG9) (TCN-109) (antibody) |  |  |  |  |  |  |  |  |  |  |  |  |  |  | IC50, pseudovirus neutralization [15]: 0.173 mg/L; IC50 (µg/mL), pseudovirus neutralization [2]: 8.12 µg/mL; IC50 (µg/ml), pseudovirus neutralization [16]: 0.59 µg/mL; IC50 [17]: 2.97 mg/L; IC50 [18]: 29.7 mg/L; IC50 (µg/ml), pseudovirus neutralization [19]: 0.004 µg/mL; IC50 (µg/ml), pseudovirus neutralization [20]: 0.91 µg/mL; IC50 (µg/ml), pseudovirus neutralization [21]: 1.45 µg/mL; IC50 (µg/ml), pseudovirus neutralization [22]: 0.01 µg/mL; IC50 (µg/ml), pseudovirus neutralization [23]: 0.01 µg/mL; IC50 (µg/ml), pseudovirus neutralization [24]: 0.03 µg/mL; IC50 (µg/ml), pseudovirus neutralization [25]: 0.19 µg/mL; IC50 (µg/ml), pseudovirus neutralization [26]: 6.32 µg/mL; IC50 (µg/ml), pseudovirus neutralization [27]: 0.01 µg/mL; IC50, pseudovirus neutralization [28]: < 0.0025 mg/L; IC90 (pseudovirus neutralization) [28]: < 0.0025 mg/L; IC50 (µg/ml), pseudovirus neutralization [29]: 0.03 µg/mL; IC50 (µg/ml), pseudovirus neutralization [30]: 29.6 µg/mL; IC50 (µg/ml), pseudovirus neutralization [31]: 0.03 µg/mL
4 | 5343_B08 (PGT-135) (antibody) | > 50 | > 50 | > 50 | 2.21 | > 50 | > 50 | > 50 | > 50 | > 50 | > 50 | > 50 | > 50 | > 50 | 0.004 | 
5 | VRC01 (antibody) |  |  | 0.515 |  |  |  |  |  |  |  |  |  |  |  | IC50 [4]: 0.332 mg/L; IC50 [5]: 0.452 mg/L
6 | 4877_D15 (PGT-122) (antibody) |  |  |  |  |  |  |  |  |  |  |  |  |  |  | IC50, pseudovirus neutralization [32]: 0.013 mg/L; neutralization IC50 [33]: 0.032 mg/L; IC50 (µg/mL), pseudovirus neutralization [34]: 0.019 µg/mL; IC50 [35]: > 50 mg/L; IC50, pseudovirus neutralization [36]: > 50 mg/L; IC50, pseudovirus neutralization [37]: 0.019 mg/L; IC50, pseudovirus neutralization [38]: 3.34 mg/L; IC50 (µg/mL), pseudovirus neutralization [39]: 0.493 µg/mL; IC50 (µg/mL), pseudovirus neutralization [40]: 0.103 µg/mL
7 | 4995_E20 (PGT-142) (antibody) |  |  | > 50 |  |  |  |  |  |  |  |  |  |  |  | 
8 | 4980_N08 (PGT-143) (antibody) |  |  | > 50 |  |  |  |  |  |  |  |  |  |  |  | 
9 | PGV04 (antibody) |  |  |  |  |  |  |  |  |  |  |  |  |  |  | IC50 (µg/mL), pseudovirus neutralization [2]: 0.255 µg/mL
10 | 4993_K13 (PGT-141) (antibody) |  |  | > 50 |  |  |  |  |  |  |  |  |  |  |  | 
11 | 4970_K22 (PGT-144) (antibody) |  |  | > 50 |  |  |  |  |  |  |  |  |  |  |  | 
12 | 5123_A06 (PGT-125) (antibody) |  |  |  |  |  |  |  |  |  |  |  |  |  |  | IC50, pseudovirus neutralization [32]: 0.03 mg/L; neutralization IC50 [33]: 22.1 mg/L; IC50 (µg/mL), pseudovirus neutralization [34]: 0.021 µg/mL; IC50 [35]: > 50 mg/L; IC50, pseudovirus neutralization [36]: > 50 mg/L; IC50, pseudovirus neutralization [37]: 0.008 mg/L; IC50, pseudovirus neutralization [38]: > 50 mg/L; IC50 (µg/mL), pseudovirus neutralization [39]: 0.048 µg/mL; IC50 (µg/mL), pseudovirus neutralization [40]: 30.1 µg/mL
13 | 5329_C19 (PGT-136) (antibody) | > 50 | 20.2 | > 50 | > 50 | > 50 | > 50 | > 50 | > 50 | > 50 | > 50 | > 50 | > 50 | > 50 | 0.006 | 
14 | 5141_B17 (PGT-126) (antibody) |  |  |  |  |  |  |  |  |  |  |  |  |  |  | IC50, pseudovirus neutralization [15]: 0.0091 mg/L; IC80 (pseudovirus neutralization) [15]: 0.0316 mg/L; IC90 (pseudovirus neutralization) [15]: 0.0655 mg/L; IC95 (pseudovirus neutralization) [15]: 0.128 mg/L; IC50, pseudovirus neutralization [32]: 0.019 mg/L; neutralization IC50 [33]: 0.279 mg/L; IC50 (µg/mL), pseudovirus neutralization [34]: 0.007 µg/mL; IC50 [35]: > 50 mg/L; IC50, pseudovirus neutralization [36]: 0.792 mg/L; IC50, pseudovirus neutralization [37]: 0.009 mg/L; IC50, pseudovirus neutralization [38]: > 50 mg/L; IC50 (µg/mL), pseudovirus neutralization [39]: 0.048 µg/mL; IC50 (µg/mL), pseudovirus neutralization [40]: 0.119 µg/mL; IC80 (pseudovirus neutralization) [28]: 0.018 mg/L; IC90 (pseudovirus neutralization) [28]: 0.0339 mg/L; IC95 (pseudovirus neutralization) [28]: 0.0608 mg/L
15 | 5136_H01 (PGT-131) (antibody) | > 50 | 0.016 | > 50 | 0.516 | > 50 | > 50 | > 50 | 1.04 | > 50 | 6.47 | > 50 | 0.088 | > 50 | 1.67 | 
16 | 5114_A19 (PGT-128) (antibody) | 0.045 | 0.006 | > 50 | 0.013 | > 50 | > 50 | 0.008 | 0.037 | 3.93 | 0.02 | > 50 | 0.019 | > 50 | 0.007 | 
17 | 4838_L06 (PGT-121) (antibody) |  |  |  |  |  |  |  |  |  |  |  |  |  |  | IC50, pseudovirus neutralization [32]: 0.009 mg/L; neutralization IC50 [33]: 0.007 mg/L; IC50 (µg/mL), pseudovirus neutralization [34]: 0.018 µg/mL; IC50 [35]: > 50 mg/L; IC50, pseudovirus neutralization [36]: > 50 mg/L; IC50, pseudovirus neutralization [37]: 0.018 mg/L; IC50, pseudovirus neutralization [38]: 0.009 mg/L; IC50 (µg/mL), pseudovirus neutralization [39]: 0.823 µg/mL; IC50 (µg/mL), pseudovirus neutralization [40]: 0.098 µg/mL
18 | 5145_B14 (PGT-127) (antibody) |  |  |  |  |  |  |  |  |  |  |  |  |  |  | IC50, pseudovirus neutralization [32]: 0.09 mg/L; neutralization IC50 [33]: 19.2 mg/L; IC50 (µg/mL), pseudovirus neutralization [34]: 0.04 µg/mL; IC50 [35]: > 50 mg/L; IC50, pseudovirus neutralization [36]: 6.02 mg/L; IC50, pseudovirus neutralization [37]: 0.015 mg/L; IC50, pseudovirus neutralization [38]: > 50 mg/L; IC50 (µg/mL), pseudovirus neutralization [39]: 0.129 µg/mL; IC50 (µg/mL), pseudovirus neutralization [40]: 36.7 µg/mL
